One block for each sequence: values may come before it.
Assays:
[1] = molecular target: HLA-B*44:02; assay: IEDB peptide-MHC binding, purified MHC/competitive/fluorescence; ≥ and ≤ were set here for values at or beyond the usual limits of such assays; settings: source organism: Homo sapiens
[2] = molecular target: HLA-A*24:02; assay: as above; settings: source organism: Homo sapiens
[3] = molecular target: HLA-A*11:01; assay: IEDB peptide-MHC binding, purified MHC/competitive/radioactivity; ≥ and ≤ were set here for values at or beyond the usual limits of such assays; settings: source organism: Rhinovirus C
[4] = molecular target: HLA-A*03:01; assay: IEDB peptide-MHC binding, purified MHC/competitive/fluorescence; ≥ and ≤ were set here for values at or beyond the usual limits of such assays; settings: source organism: Homo sapiens
[5] = molecular target: HLA-B*08:01; assay: as above; settings: source organism: Homo sapiens
[6] = molecular target: HLA-B*18:01; assay: as above; settings: source organism: Homo sapiens
[7] = molecular target: HLA-A*02:01; assay: as above; settings: source organism: Homo sapiens
[8] = molecular target: HLA-B*35:01; assay: as above; settings: source organism: Homo sapiens
[9] = molecular target: HLA-A*68:02; assay: as above; settings: source organism: Homo sapiens
[10] = molecular target: HLA-A*25:01; assay: as above; settings: source organism: Homo sapiens
[11] = molecular target: HLA-B*58:01; assay: as above; settings: source organism: Homo sapiens
[12] = molecular target: HLA-A*01:01; assay: as above; settings: source organism: Homo sapiens
[13] = molecular target: HLA-B*51:01; assay: as above; settings: source organism: Homo sapiens
[14] = molecular target: HLA-A*31:01; assay: as above; settings: source organism: Homo sapiens
[15] = molecular target: HLA-B*53:01; assay: as above; settings: source organism: Homo sapiens
[16] = molecular target: HLA-B*40:02; assay: as above; settings: source organism: Homo sapiens
[17] = molecular target: HLA-A*11:01; assay: as above; settings: source organism: Homo sapiens
[18] = molecular target: HLA-B*37:01; assay: as above; settings: source organism: Homo sapiens
[19] = molecular target: HLA-A*29:02; assay: as above; settings: source organism: Homo sapiens
[20] = molecular target: HLA-B*44:03; assay: as above; settings: source organism: Homo sapiens
[21] = molecular target: HLA-B*07:02; assay: as above; settings: source organism: Homo sapiens
[22] = molecular target: HLA-B*14:02; assay: as above; settings: source organism: Homo sapiens
[23] = molecular target: HLA-A*03:01; assay: IEDB peptide-MHC binding, purified MHC/direct/fluorescence; filed as Kd, often an IC50 or EC50 that approximates it; ≥ and ≤ were set here for values at or beyond the usual limits of such assays; settings: source organism: Mycobacterium tuberculosis str. Haarlem
[24] = molecular target: HLA-A*02:12; assay: as above; settings: source organism: Mycobacterium tuberculosis str. Haarlem
[25] = molecular target: HLA-B*18:01; assay: as above; settings: source organism: Mycobacterium tuberculosis str. Haarlem
[26] = molecular target: HLA-A*02:01; assay: as above; settings: source organism: Mycobacterium tuberculosis str. Haarlem
[27] = molecular target: HLA-B*39:01; assay: as above; settings: source organism: Mycobacterium tuberculosis str. Haarlem
[28] = molecular target: HLA-A*24:03; assay: as above; settings: source organism: Mycobacterium tuberculosis str. Haarlem
[29] = molecular target: HLA-B*51:01; assay: as above; settings: source organism: Mycobacterium tuberculosis str. Haarlem
[30] = molecular target: HLA-B*57:01; assay: as above; settings: source organism: Mycobacterium tuberculosis str. Haarlem
[31] = molecular target: HLA-A*26:01; assay: as above; settings: source organism: Mycobacterium tuberculosis str. Haarlem
[32] = molecular target: HLA-A*02:06; assay: as above; settings: source organism: Mycobacterium tuberculosis str. Haarlem
[33] = molecular target: HLA-B*27:03; assay: as above; settings: source organism: Mycobacterium tuberculosis str. Haarlem
[34] = molecular target: HLA-A*29:02; assay: as above; settings: source organism: Mycobacterium tuberculosis str. Haarlem
[35] = molecular target: HLA-B*46:01; assay: as above; settings: source organism: Mycobacterium tuberculosis str. Haarlem
[36] = molecular target: HLA-B*08:01; assay: IEDB peptide-MHC binding, purified MHC/competitive/fluorescence; filed as Kd, often an IC50 or EC50 that approximates it; ≥ and ≤ were set here for values at or beyond the usual limits of such assays; settings: source organism: Mycobacterium tuberculosis variant bovis BCG str. Pasteur 1173P2
[37] = molecular target: HLA-B*44:02; assay: as above; settings: source organism: Mycobacterium tuberculosis variant bovis BCG str. Pasteur 1173P2
[38] = molecular target: HLA-A*30:01; assay: as above; settings: source organism: Mycobacterium tuberculosis variant bovis BCG str. Pasteur 1173P2
[39] = molecular target: HLA-B*58:01; assay: as above; settings: source organism: Mycobacterium tuberculosis variant bovis BCG str. Pasteur 1173P2
[40] = molecular target: HLA-A*01:01; assay: as above; settings: source organism: Mycobacterium tuberculosis variant bovis BCG str. Pasteur 1173P2
[41] = molecular target: HLA-A*66:01; assay: as above; settings: source organism: Mycobacterium tuberculosis variant bovis BCG str. Pasteur 1173P2
[42] = molecular target: HLA-B*53:01; assay: as above; settings: source organism: Mycobacterium tuberculosis variant bovis BCG str. Pasteur 1173P2
[43] = molecular target: HLA-A*23:01; assay: as above; settings: source organism: Mycobacterium tuberculosis variant bovis BCG str. Pasteur 1173P2
[44] = molecular target: HLA-A*11:01; assay: as above; settings: source organism: Mycobacterium tuberculosis variant bovis BCG str. Pasteur 1173P2
[45] = molecular target: HLA-B*40:01; assay: as above; settings: source organism: Mycobacterium tuberculosis variant bovis BCG str. Pasteur 1173P2
[46] = molecular target: HLA-B*27:05; assay: as above; settings: source organism: Mycobacterium tuberculosis variant bovis BCG str. Pasteur 1173P2
[47] = molecular target: HLA-A*30:02; assay: as above; settings: source organism: Mycobacterium tuberculosis variant bovis BCG str. Pasteur 1173P2
[48] = molecular target: HLA-B*14:02; assay: as above; settings: source organism: Mycobacterium tuberculosis variant bovis BCG str. Pasteur 1173P2

- IC50 [1]: ≥ 20 µM
- IC50 [2]: 2.61 µM
Sequence: FYYNAFHW

Sequence: KYFNINYYK
- IC50 [3]: 0.2 µM

- IC50 [4]: ≥ 20 µM
- IC50 [5]: ≥ 20 µM
- IC50 [6]: 2.77 µM
- IC50 [7]: ≥ 20 µM
- IC50 [8]: 0.0205 µM
- IC50 [9]: ≥ 20 µM
- IC50 [10]: 1.29 µM
- IC50 [2]: ≥ 20 µM
- IC50 [11]: ≥ 20 µM
- IC50 [12]: ≥ 20 µM
- IC50 [13]: ≥ 20 µM
- IC50 [14]: ≥ 20 µM
- IC50 [15]: ≥ 20 µM
- IC50 [16]: ≥ 20 µM
- IC50 [17]: 0.833 µM
- IC50 [18]: ≥ 20 µM
- IC50 [19]: 0.0053 µM
- IC50 [20]: ≥ 20 µM
- IC50 [21]: ≥ 20 µM
- IC50 [22]: ≥ 20 µM
Sequence: MVRVLTVIKEY

Sequence: RVACRDVEV
- Kd [23]: ≥ 20 µM
- Kd [24]: 0.032 µM
- Kd [25]: ≥ 20 µM
- Kd [26]: 0.254 µM
- Kd [27]: ≥ 20 µM
- Kd [28]: ≥ 20 µM
- Kd [29]: ≥ 20 µM
- Kd [30]: ≥ 20 µM
- Kd [31]: ≥ 20 µM
- Kd [32]: 0.002 µM
- Kd [33]: ≥ 20 µM
- Kd [34]: ≥ 20 µM
- Kd [35]: ≥ 20 µM
- Kd [36]: ≥ 5 µM
- Kd [37]: ≥ 5 µM
- Kd [38]: ≥ 5 µM
- Kd [39]: ≥ 5 µM
- Kd [40]: ≥ 5 µM
- Kd [41]: ≥ 5 µM
- Kd [42]: ≥ 5 µM
- Kd [43]: ≥ 5 µM
- Kd [44]: ≥ 5 µM
- Kd [45]: ≥ 5 µM
- Kd [46]: ≥ 5 µM
- Kd [47]: ≥ 5 µM
- Kd [48]: 3 µM

Reference: the Immune Epitope Database (IEDB)
